For assay [1], the system named is A2780 sensitive and cisplatin resistant EOC cells. The assay can be described thus: TACS MTT cell viability in A2780 cells. The format is cell-based, human. The conditions noted are these: Abciximab combined with cisplatin, CI<1 indicates synergism, FIGS. 1B-1D. The method, then:
FIGS. 3A-3E. Cell viability in A2780 sensitive and cisplatin resistant EOC cells after treatment with integrin αV and integrin β1 antibody. (FIG. 3A) A2780 chemosensitive and (FIG. 3B) cisplatin resistant EOC cells were treated with or without integrin αV and integrin β1 antibody alone or in combination and viability was assessed using the TACS MTT Cell Proliferation Assay.
FIGS. 4A and 4B. Integrin αV and integrin β1 antibodies cross-react with a potential soluble target in EOC cell media. To test whether media collected from A2780 EOC cells contains a target that cross-reacts with the integrin αV or integrin β1 monoclonal antibodies, cells were cultured for 48 hours followed by removal of media. Either mouse anti-integrin αV or mouse anti-integrin β1 antibody was incubated with the conditioned cell culture media for 24 hours to block the antibody with the unknown target. […]
(§1) Cell viability was determined using the TACS MTT Cell Proliferation Assay (Trevigen, Gaithersburg, Md.) per the manufacturer's protocol. […] Absorbance was measured at 570 nm. […] A standard curve was constructed utilizing the OD readings correlating with each standard point and was utilized to determine cell number in the test samples.
Cell Viability was Determined Using the TACS MTT Cell Proliferation Assay (Trevigen, Gaithersburg, Md.) per the manufacturer's protocol. […]

Assay [2] has as its system sensitive EOC cell lines, their Taxotere or Cisplatin resistant counterparts and colon, endometrial, lung, prostate, bladder, hepatocellular cancer cell lines. The assay can be described thus: TACS MTT cell viability, Abciximab in cancer versus non-cancer cells. The assay is classed as cell-based, human. The conditions noted are these: increasing doses of Abciximab; cancer cells compared to non-cancer cells; FIG. 1A.
Excerpt: FIGS. 1A-1E. Anti-cancer effects of Abciximab and NIF. (FIG. 1A) Anti-cancer effects of Abciximab in sensitive EOC cell lines (A2780, MDAH-2774, SKOV-3, OV90, TOV21G, OV112D, OV433, and HTB-161) and their Taxotere or Cisplatin resistant counterparts, human macrophages, and other cancer cell lines including colon (HTB-37), endometrial (CRL-1671), lung (CCL-257), prostate (CRL-1740), bladder (HTB-4), and hepatocellular (HB-8065) cancers, in vitro. (FIG. 1B) The combined effect of Abciximab alone or in combination with Cisplatin in both sensitive A2780 and their (FIG. 1C) Cisplatin resistant counterpart in vitro. […] (FIG. 1E) Anti-cancer effects of NIF in both sensitive A2780 and their Cisplatin resistant counterpart in vitro.
as §1, with “protocol. Briefly, measurement of cell proliferation is based upon the reduction of the tetrazolium salt, 3,[4,5-dimethytthiazol-2-yl]-2,5-diphenyl-tetrazolium bromide (MTT). MTT is reduced to an insoluble formazan dye by mitochondrial enzymes associated with metabolic activity of living cells.” for “protocol.”, “samples. […]” for “samples.”

B1: Abciximab (antibody, chains of the INN, looked up, V domains shown)
VH: EVQLQQSGTVLARPGASVKMSCEASGYTFTNYWMHWVKQRPGQGLEWIGAIYPGNSDTSYIQKFKGKAKLTAVTSTTSVYMELSSLTNEDSAVYYCTLYDGYYVFAYWGQGTLVTVSA
VL: EIVLTQSPVTLSVTPGDSVSLSCRASRDISNNLHWFQQTSHESPRLLIKYASQSMSGIPSRFSGSGSGTDFTLSINSVETEDFGMYFCQQTNSWPYTFGGGTKLEIK
modifications: Fab
In the case of B1, the “effect of combination with cisplatin” value in assay [1] is reported as “synergistic effect”. In assay [2], the “anti-cancer activity (cell viability)” value is reported as “significant”.

The values above are taken from patent US11180560B2, “Compositions and methods to treat solid tumors” (Wayne State University, priority 2015, dated 2021).
